Measured values published in US20220273733A1.

Experiments:
[1] = target: soymeal proteins (ethanol-precipitated, heat-denatured soy-meal protein mixture)
[2] = target: lactoferrin (glycosylated, of human milk) (human) (UniProt P02788)

| Glycan Yield (ug), released glycans measured by phenol sulphuric total carbohydrate assay [1] [µg] | N-glycans in fecal samples (nano-HPLC-Chip-TOF) compared with the lactoferrin N-glycan library (out of 18 N-glycans) [2] | Binder |
| --- | --- | --- |
| 75 | – | EndoBI-1 (endo-β-N-acetylglucosaminidase from B. infantis), enzyme solution used in Example 1 (enzyme) DAVSPTQETIQSTGRHFMVYYRAWRDVTMKGVNTDLPDDNWISMYDIPYGVDVVNIFSYVPSGQEEQAQPFYDKLKSDYAPYLHSRGIKLVRGIDYTGVAVNGFRTFMKEQNKTESEATEADYDAYAKQVIDKYMISVGLDGLDIDMEAHPNDADVKISDNVIRALSKHIGPKSAKPDTTMFLYDTNGSYLNPFKNVAECFDYVAYQQYGSSSDRTARAAADYQPYIGNEFVPGLTFPEEGDMNNRWYDATEPYEESHFYQVASYVREHNLGGMFVYALDRDGRNYDEDLRRIVPSNLLWTKTAIAESEGMALDTAKTAANHYLDRMSLRQVIDDNAASADKARDMVGKAANLYETNKAVLGGDYGEGFSNTYDPTLEAGLLGIDISVLQQQIDKSSEIIGADTAESDAKTALRMARDAAIDGLTGKIYTADQVSAWSQALKAALDATVPVPTPDSTDQNGNRDKVTNHKVQGQPKQLSATGISTDIIVAVGVTLAIAGVALSLSRKLS |
| – | 14 | EndoBI-1 of B. infantis EVC001 as acting in the gut of EVC001-fed infants (enzyme) DAVSPTQETIQSTGRHFMVYYRAWRDVTMKGVNTDLPDDNWISMYDIPYGVDVVNIFSYVPSGQEEQAQPFYDKLKSDYAPYLHSRGIKLVRGIDYTGVAVNGFRTFMKEQNKTESEATEADYDAYAKQVIDKYMISVGLDGLDIDMEAHPNDADVKISDNVIRALSKHIGPKSAKPDTTMFLYDTNGSYLNPFKNVAECFDYVAYQQYGSSSDRTARAAADYQPYIGNEFVPGLTFPEEGDMNNRWYDATEPYEESHFYQVASYVREHNLGGMFVYALDRDGRNYDEDLRRIVPSNLLWTKTAIAESEGMALDTAKTAANHYLDRMSLRQVIDDNAASADKARDMVGKAANLYETNKAVLGGDYGEGFSNTYDPTLEAGLLGIDISVLQQQIDKSSEIIGADTAESDAKTALRMARDAAIDGLTGKIYTADQVSAWSQALKAALDATVPVPTPDSTDQNGNRDKVTNHKVQGQPKQLSATGISTDIIVAVGVTLAIAGVALSLSRKLS |
